We go through three substances from patent publication US20120087931A1.

In test [1] the target is membrane Hsp70 on mouse tumor cells (mouse) (UniProt Q61696). Nature of the test: flow cytometry at 4 C, viable B16/F10 (C57/Bl6) melanoma cells. On the technique in general: In flow cytometry, cells or beads pass a laser one at a time.
Test [2] has the same target. Nature of the test: flow cytometry at 4 C, viable ADJ (BALB/c) plasmocytoma cells.
For test [3] the target is unchanged. The test can be described thus: flow cytometry at 4 C, viable A20 (BALB/c) B cell lymphoma cells (counted as membrane Hsp70 negative, limit 15%).
Test [4] shares this target. The test can be described thus: flow cytometry, single cell suspensions of CT26 tumors from mice on day 14; antibody not named.
Test [5] shares this target. The test can be described thus: flow cytometry, CT26 cells used as ADCC targets (FIG. 8).
Test [6] shares this target. The test can be described thus: flow cytometry, cultured CT26 cells; antibody not named.
For test [7] the target is unchanged. Nature of the test: flow cytometry at 4 C, viable CT26 (BALB/c) colon carcinoma cells.
For test [8] the target is unchanged. The test can be described thus: flow cytometry, cmHsp70.1-FITC on viable CT26 mouse colon carcinoma cells; IgG1 isotype control as white histogram.
Test [9] has the same target. The test can be described thus: flow cytometry at 4 C, CT26 cells, cmHsp70.1-FITC 5 µg/mL without peptide.
The target in test [10] is purified human Hsp70 protein (human) (UniProt P0DMV8). The test can be described thus: SPR, Biacore X, 25 C, Hsp70 0.78-50 nM, global fit to a 1:1 model. (In SPR one partner is held on a chip, and binding of the other changes the refractive index at the surface.)
Chain of UniProt P0DMV8 (P0DMV8 whole entry): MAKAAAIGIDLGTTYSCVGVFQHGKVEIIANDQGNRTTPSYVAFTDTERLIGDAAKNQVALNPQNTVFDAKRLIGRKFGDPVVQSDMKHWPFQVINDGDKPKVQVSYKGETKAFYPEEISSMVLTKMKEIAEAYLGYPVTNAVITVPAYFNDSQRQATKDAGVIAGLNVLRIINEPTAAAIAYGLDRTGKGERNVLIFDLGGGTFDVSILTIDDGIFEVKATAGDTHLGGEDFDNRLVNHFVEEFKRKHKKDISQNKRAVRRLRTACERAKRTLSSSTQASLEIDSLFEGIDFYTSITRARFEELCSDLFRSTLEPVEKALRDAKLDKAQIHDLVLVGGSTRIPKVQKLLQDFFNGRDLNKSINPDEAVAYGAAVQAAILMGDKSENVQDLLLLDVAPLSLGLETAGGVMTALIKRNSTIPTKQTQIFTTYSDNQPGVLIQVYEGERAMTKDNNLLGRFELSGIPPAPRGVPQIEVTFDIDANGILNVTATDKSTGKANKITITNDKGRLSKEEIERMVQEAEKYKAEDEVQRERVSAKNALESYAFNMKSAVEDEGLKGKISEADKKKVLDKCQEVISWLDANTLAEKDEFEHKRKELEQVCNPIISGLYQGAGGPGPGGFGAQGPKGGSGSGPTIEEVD
Test [11] deals with membrane Hsp70 on mouse tumor cells (mouse) (UniProt Q61696). Nature of the test: flow cytometry, CT26 cells used as ADCC targets (FIG. 9B).
Test [12] has the same target. The test can be described thus: flow cytometry, CT26 cells from tissue culture; antibody not named.
For test [13] the target is unchanged. The test can be described thus: cell-based or functional assay.
The target is the same in test [14]. The test can be described thus: flow cytometry, single-cell suspensions of CT26 tumors from mice on day 14; antibody not named.
The target is the same in test [15]. The test can be described thus: flow cytometry, CT26 cells used as ADCC targets (FIG. 9A).
Test [16] has the same target. The test can be described thus: flow cytometry at 4 C, viable 1048 (BALB/c) pancreatic carcinoma cells (counted as membrane Hsp70 negative, limit 15%).
Test [17] shares this target. Nature of the test: flow cytometry at 4 C, viable MOS162 (C3H) osteosarcoma cells.
Test [18] deals with monoclonal antibody cmHsp70.1 as produced by hybridoma cmHsp70.1 (DSM ACC2629). Nature of the test: flow cytometry at 4 C, CT26 cells, cmHsp70.1-FITC 5 µg/mL plus TKD 12.5 µg/mL.
For test [19] the target is unchanged. Nature of the test: flow cytometry at 4 C, CT26 cells, cmHsp70.1-FITC 5 µg/mL plus TKD 25 µg/mL.
In test [20] the target is theta antigen on BW mouse tumor cells. The test can be described thus: staining of BW mouse cells transfected with theta (method not given).

“And” between values parts separate entries of the source, which are not always exact repeats. Equal entries are not always repeated.

Chain of UniProt Q61696 (Q61696 2-641): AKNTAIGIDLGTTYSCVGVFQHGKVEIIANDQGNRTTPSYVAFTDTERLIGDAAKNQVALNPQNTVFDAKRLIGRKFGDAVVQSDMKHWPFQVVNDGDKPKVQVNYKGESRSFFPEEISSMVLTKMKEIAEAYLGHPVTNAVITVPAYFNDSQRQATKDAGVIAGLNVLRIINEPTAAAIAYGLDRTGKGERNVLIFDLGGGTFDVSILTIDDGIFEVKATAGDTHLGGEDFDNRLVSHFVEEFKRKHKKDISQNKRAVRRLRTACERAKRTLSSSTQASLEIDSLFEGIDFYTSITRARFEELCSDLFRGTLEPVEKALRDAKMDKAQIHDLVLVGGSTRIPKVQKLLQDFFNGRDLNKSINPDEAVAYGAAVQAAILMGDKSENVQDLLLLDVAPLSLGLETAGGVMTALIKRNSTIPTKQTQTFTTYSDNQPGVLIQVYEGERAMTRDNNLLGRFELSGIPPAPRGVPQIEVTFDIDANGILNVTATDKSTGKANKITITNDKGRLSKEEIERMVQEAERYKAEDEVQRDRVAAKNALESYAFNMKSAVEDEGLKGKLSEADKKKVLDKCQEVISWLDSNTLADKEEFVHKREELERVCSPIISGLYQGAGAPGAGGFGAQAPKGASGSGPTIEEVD

Take “monoclonal antibody cmHsp70.1 as produced by hybridoma cmHsp70.1 (DSM ACC2629)”: the Hsp70 membrane-positive cells (%) in test [1] came out at 97%; in [2], 45%; in test [3], 5%; in test [5] it was 55%; in test [7], 44%; in test [16] it was 12%. In test [17], this substance came in with a Hsp70 membrane-positive cells (%) of 70%. The Hsp70 membrane positive cells (%) was determined as 79.8% in [4] and 56.2% in [12]. In addition, the membrane Hsp70+ cells (%) in test [6] was 46.2%; in test [9], 59% and 60%; in test [14], 69.8%; in test [15] it was 60%. In [8], the positive cells in the marker gate was 59%. In addition, the Kd in test [10] stood at 5.4 nM. This substance also showed a koff in test [10] of 0.000379 s⁻¹. Also, the kon in test [10] came out at 69900 M⁻¹ s⁻¹. The cmHsp70.1+ cells (%) in test [11] was determined as 61%. In test [13], the ADCC against CT26 tumor cells (4 h 51Cr release, unstimulated mouse spleen cells) is 1.4 µg/mL.

For the substance 14-mer Hsp70 peptide TKD (…), the membrane Hsp70+ cells (%) left in the presence of the peptide in [18] was 44%; in test [19], < 15%.

As for IgG1 O×7.11 mAb (antibody), the positive cells (%) in [20] is 56%.

By Kd is commonly meant the free concentration of one partner at which half of the binding sites on the other are occupied at equilibrium, for simple one-to-one binding. Read a low Kd as tighter binding. Broadly, the koff is the first-order rate constant of dissociation. Higher therefore signals fast dissociation. In general, kon refers to the second-order rate constant of association.
